From publication PMC5159797, “Phosphorylation of SKAP by GSK3β ensures chromosome segregation by a temporal inhibition of Kif2b activity” (Scientific Reports, 2016)

Biological target: T1, His-GSK3β (human, UniProt P49841 1-420)
T1 construct: GSK3β; the construct is not described further; The pull-down methods speak of His-tagged fusion proteins expressed in bacterial cells, the protein methods of insect cells; also called 6×His-GSK3β; His-tagged GSK3β; source: insect cells, purified (Ni-NTA agarose)
T1 sequence (P49841 whole entry, the tested form may be a part): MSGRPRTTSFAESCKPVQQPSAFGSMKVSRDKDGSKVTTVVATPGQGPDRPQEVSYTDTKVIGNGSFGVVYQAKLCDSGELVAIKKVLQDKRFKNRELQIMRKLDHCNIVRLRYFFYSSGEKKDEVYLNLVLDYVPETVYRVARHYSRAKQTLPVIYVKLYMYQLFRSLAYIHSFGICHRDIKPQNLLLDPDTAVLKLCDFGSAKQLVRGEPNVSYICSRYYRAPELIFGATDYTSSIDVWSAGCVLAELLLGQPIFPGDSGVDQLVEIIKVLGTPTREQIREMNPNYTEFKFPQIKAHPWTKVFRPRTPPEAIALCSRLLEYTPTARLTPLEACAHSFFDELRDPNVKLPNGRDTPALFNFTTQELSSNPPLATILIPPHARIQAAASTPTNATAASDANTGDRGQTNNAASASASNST
Test: pull-down; GST fusion protein-bound sepharose beads incubated 2 h at 4 °C with purified MBP fusion proteins or His-tagged protein; PBS, 0.1% Triton X-100; anti-MBP or anti-His blot
Conditions: both partners purified

B1: GST-SKAP (natural protein, UniProt Q9Y448 1-316, looked up)
chain: MAAPEAPPLDRVFRTTWLSTECDSHPLPPSYRKFLFETQAADLAGGTTVAAGNLLNESEKDCGQDRRAPGVQPCRLVTMTSVVKTVYSLQPPSALSGGQPADTQTRATSKSLLPVRSKEVDVSKQLHSGGPENDVTKITKLRRENGQMKATDTATRRNVRKGYKPLSKQKSEEELKDKNQLLEAVNKQLHQKLTETQGELKDLTQKVELLEKFRDNCLAILESKGLDPALGSETLASRQESTTDHMDSMLLLETLQEELKLFNETAKKQMEELQALKVKLEMKEERVRFLEQQTLCNNQVNDLTTALKEMEQLLEM
notes: SKAP (small kinetochore-associated protein), full length, cloned into pGEX-5X-3; also called GST-tagged SKAP full length; GST-SKAP-WT; source: E. coli Rosetta (DE3), purified on glutathione-sepharose 4B
- binding result: binds
